Test results published in US20200407715.
Read-outs that look alike come from different tables or passages of the source.

Assays:
[1] = test system: T1, Cas12i1 (IVTT-expressed) (uncultured freshwater metagenome); conditions: IVTT gene silencing
T1 sequence: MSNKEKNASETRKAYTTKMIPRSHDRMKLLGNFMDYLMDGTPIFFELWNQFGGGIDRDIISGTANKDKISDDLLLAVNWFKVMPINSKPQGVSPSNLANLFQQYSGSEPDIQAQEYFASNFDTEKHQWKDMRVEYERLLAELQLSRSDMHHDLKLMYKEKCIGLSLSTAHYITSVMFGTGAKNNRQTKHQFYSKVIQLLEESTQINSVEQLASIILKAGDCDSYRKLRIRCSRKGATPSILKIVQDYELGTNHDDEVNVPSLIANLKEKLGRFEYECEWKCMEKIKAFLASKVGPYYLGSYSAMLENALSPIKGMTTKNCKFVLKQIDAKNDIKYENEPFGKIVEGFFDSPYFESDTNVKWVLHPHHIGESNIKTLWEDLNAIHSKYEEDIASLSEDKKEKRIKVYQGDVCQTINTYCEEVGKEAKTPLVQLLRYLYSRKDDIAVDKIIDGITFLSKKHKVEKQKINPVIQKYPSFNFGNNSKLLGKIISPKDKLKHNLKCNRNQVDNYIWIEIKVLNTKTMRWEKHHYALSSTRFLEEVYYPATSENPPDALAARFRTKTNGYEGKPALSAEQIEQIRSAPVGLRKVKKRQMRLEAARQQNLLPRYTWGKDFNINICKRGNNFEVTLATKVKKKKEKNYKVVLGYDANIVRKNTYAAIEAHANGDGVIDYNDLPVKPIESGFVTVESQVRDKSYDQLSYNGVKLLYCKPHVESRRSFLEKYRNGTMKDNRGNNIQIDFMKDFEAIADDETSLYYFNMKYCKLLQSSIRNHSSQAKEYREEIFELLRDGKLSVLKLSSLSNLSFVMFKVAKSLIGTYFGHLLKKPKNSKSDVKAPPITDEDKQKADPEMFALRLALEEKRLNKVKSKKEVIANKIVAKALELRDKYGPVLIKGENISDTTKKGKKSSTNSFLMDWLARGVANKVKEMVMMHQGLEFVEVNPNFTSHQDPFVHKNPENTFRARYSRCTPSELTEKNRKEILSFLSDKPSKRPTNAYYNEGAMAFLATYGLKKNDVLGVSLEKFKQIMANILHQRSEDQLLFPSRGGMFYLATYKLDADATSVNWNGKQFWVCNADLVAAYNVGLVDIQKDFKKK

[2] = test system: T1, Cas12i1 (IVTT-expressed) (uncultured freshwater metagenome); conditions: IVTT gene silencing, after 400 min
[3] = test system: T2, Cas12i2 mammalian construct (uncultured freshwater lake metagenome); test: cell_activity; conditions: PAM TTC; 293T cells, 72 h; indels centred around +20 from PAM
T2 sequence: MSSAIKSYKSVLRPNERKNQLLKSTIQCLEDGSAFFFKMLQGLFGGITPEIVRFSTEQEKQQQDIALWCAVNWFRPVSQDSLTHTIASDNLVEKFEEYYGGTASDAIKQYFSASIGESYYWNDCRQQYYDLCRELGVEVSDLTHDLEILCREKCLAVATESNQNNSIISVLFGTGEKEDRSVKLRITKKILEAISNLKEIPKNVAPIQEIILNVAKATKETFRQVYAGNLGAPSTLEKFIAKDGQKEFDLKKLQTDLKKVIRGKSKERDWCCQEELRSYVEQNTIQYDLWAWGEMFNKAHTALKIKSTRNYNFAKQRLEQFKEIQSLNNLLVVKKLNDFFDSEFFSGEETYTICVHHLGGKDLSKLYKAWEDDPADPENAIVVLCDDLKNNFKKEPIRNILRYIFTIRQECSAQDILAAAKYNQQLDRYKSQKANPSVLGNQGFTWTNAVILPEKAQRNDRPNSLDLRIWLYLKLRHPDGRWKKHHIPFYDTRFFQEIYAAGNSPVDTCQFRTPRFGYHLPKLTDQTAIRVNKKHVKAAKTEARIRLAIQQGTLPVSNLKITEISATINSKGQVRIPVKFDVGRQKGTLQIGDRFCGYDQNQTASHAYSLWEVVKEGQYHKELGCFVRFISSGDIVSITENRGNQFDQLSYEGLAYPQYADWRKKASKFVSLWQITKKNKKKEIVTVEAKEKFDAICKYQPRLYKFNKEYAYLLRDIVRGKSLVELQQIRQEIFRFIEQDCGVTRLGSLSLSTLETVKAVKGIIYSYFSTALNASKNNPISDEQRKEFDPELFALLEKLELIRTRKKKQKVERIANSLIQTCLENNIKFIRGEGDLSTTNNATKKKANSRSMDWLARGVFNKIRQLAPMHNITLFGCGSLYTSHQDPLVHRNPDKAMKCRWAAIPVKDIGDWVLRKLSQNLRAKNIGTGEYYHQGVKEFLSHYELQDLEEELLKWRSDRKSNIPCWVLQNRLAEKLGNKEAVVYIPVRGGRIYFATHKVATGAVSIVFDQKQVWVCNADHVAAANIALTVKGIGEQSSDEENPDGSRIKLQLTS

Work on “GFP guide complementary to coding strand ; GFP plasmid (sigma 28 promoter)” yielded an activity (fold GFP depletion) [1] greater than 4.

In the case of “GFP guide complementary to template strand ; GFP plasmid (sigma 28 promoter)”, the activity (fold GFP depletion) [2] is reported as 2.

In the case of “VEGFA guide for Cas12i2 (pre-crRNA) ; VEGFA locus target, TTC PAM”, the activity [3] is reported as 13 % indel.
